The text below walks through data of article PMC4599338 (Microbial Cell Factories, 2015).

The target in assay [1] is Vaccinia Virus, Western Reserve, L1R Protein with C-Terminal Histidine Tag, Recombinant from baculovirus (Vaccinia virus, Western Reserve, UniProt P07612). In words: SPR; […] (100 to 0 nM, […], dissociation 600 s; […]; Langmuir model; […]. The conditions noted are these: both partners purified.
In assay [2] the target is Staphylococcal enterotoxin B (Staphylococcus aureus, strain , UniProt P01552).

B1: sdAb clone L1-G2 (VHH)
VHH: EVQLQASGGGLVQAGGSLRLSCTASGRAFSTTNMGWFRQAPGKEREFVTRVNWSGGVTSYADSVKGRFTLSRDNTKNTVYLQMDSLKPEDTAVYYCAGSTVWSTDRKHYNYWGQGTQVTVSS
For the molecule B1, in assay [1], the Kd was determined as 1.1 nM, the koff was 0.00063 s⁻¹ and the kon turned out to be 580000 M⁻¹ s⁻¹.

B2: sdAb clone L1-G2+neg (VHH)
VHH: EVQLVESGGGLVQDGDSLRLSCTASGRAFSTTNMGWFRQAPGKEREFVCRVNWSGGVTSYADSVKGRFTCSRDNTKNTVYLQMDSLKPEDTAVYYCAGSTVWSTDRKHYNYWGQGTQVTVSS
As to B2, in assay [1], the Kd was 3.3 nM, the koff is 0.0014 s⁻¹ and the kon came to 420000 M⁻¹ s⁻¹.

B3: sdAb clone L1-G2+ (VHH)
VHH: EVQLQASGGGLVQAGGSLRLSCTASGRAFSTTNMGWFRQAPGKEREFVCRVNWSGGVTSYADSVKGRFTCSRDNTKNTVYLQMDSLKPEDTAVYYCAGSTVWSTDRKHYNYWGQGTQVTVSS
As for B3, in assay [1], the dissociation constant Kd came to 2.4 nM, the koff stood at 0.0013 s⁻¹ and the kon was determined as 590000 M⁻¹ s⁻¹.

B4: sdAb clone L1-G2+neg2 (VHH)
VHH: EVQLVESGGGLVQDGDSLRLSCTASGRAFSTTNMGWFRQAPGKEREFVCRVNWSGGVTSYADSVKGRFTCSADNTKNTVYLQMDSLKPEDTAVYYCAGSTVWSTDRKHYNYWGQGTQVTVSS
For B4, in assay [1], the Kd was 23 nM, the koff stood at 0.013 s⁻¹ and the on-rate constant (kon) came to 540000 M⁻¹ s⁻¹.

B5: AC (VHH)
VHH: DVQLQASGGGLVQPGGSLRLTCAASGLIFGSYAMGWFRQAPGKAREFVAAISWSGGDTYADSVKGRFTISRDNAKNTVYLQMNSLEPEDTAVYSCAAVGSKYYISKDAKDYGYWGQGTQVTVSS
B5: in assay [2], the binding result is reported as “binds”.
